Results on one molecule are retold here after article PMC7709125, “Bringing the Heavy Chain to Light: Creating a Symmetric, Bivalent IgG-Like Bispecific” (Antibodies, 2020).

The test concerns the target T1, 5FV2 soluble VH domain targeting human VEGF (human).
T1 construct: also called anti-hVEGF VH domain; phage-derived VH domain 5FV2
The experiment in a line: SPR. As to conditions: both partners purified.

What is called Kd is the concentration at which binding is half-saturated. The low end stands for higher affinity, the high end for lower affinity. The term kon denotes a measure of how fast the partners come together.

T1 sequence (heavy, as listed by the source): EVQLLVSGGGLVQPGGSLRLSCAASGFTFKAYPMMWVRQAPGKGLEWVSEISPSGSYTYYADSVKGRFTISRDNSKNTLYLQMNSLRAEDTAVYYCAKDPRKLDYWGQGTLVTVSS

B1: human vascular endothelial growth factor (VEGF) (ligand, UniProt P15692 1-395, looked up)
chain: APMAEGGGQNHHEVVKFMDVYQRSYCHPIETLVDIFQEYPDEIEYIFKPSCVPLMRCGGCCNDEGLECVPTEESNITMQIMRIKPHQGQHIGEMSFLQHNKCECRPKKDRARQENPCGPCSERRKHLFVQDPQTCKCSCKNTDSRCKARQLELNERTCRCDKPRR
notes: also called hVEGF; human VEGF; source: commercially available antigen
On to B1, for which the dissociation constant (Kd) is 3 nM and the on-rate constant (kon) came out at 730000 M⁻¹ s⁻¹.
